{"source": "patent US20250092426", "about": "“CAS ENDONUCLEASES AND RELATED METHODS” (Flagship Pioneering Innovations VII, LLC, published 2025)", "binders": {"B1": {"name": "BFP-to-GFP template RNA ; BFP reporter protospacer (ssRNA ; dsDNA)", "RNA": "GCCGAAGCACUGCACGCCGUGUUUUAGAGCUAGAAAUAGCAAGUUAAAAUAAGGCUAGUCCGUUAUCAACUUGAAAAAGUGGCACCGAGUCGGUGCACCCUGACGUACGGCGUGCAGUGCUU", "DNA 1": "GCCGAAGCACTGCACGCCGT", "DNA 2": "ACGGCGTGCAGTGCTTCGGC"}}, "target": "T1, CasEnd-33 (synthetic construct)", "T1 chain": "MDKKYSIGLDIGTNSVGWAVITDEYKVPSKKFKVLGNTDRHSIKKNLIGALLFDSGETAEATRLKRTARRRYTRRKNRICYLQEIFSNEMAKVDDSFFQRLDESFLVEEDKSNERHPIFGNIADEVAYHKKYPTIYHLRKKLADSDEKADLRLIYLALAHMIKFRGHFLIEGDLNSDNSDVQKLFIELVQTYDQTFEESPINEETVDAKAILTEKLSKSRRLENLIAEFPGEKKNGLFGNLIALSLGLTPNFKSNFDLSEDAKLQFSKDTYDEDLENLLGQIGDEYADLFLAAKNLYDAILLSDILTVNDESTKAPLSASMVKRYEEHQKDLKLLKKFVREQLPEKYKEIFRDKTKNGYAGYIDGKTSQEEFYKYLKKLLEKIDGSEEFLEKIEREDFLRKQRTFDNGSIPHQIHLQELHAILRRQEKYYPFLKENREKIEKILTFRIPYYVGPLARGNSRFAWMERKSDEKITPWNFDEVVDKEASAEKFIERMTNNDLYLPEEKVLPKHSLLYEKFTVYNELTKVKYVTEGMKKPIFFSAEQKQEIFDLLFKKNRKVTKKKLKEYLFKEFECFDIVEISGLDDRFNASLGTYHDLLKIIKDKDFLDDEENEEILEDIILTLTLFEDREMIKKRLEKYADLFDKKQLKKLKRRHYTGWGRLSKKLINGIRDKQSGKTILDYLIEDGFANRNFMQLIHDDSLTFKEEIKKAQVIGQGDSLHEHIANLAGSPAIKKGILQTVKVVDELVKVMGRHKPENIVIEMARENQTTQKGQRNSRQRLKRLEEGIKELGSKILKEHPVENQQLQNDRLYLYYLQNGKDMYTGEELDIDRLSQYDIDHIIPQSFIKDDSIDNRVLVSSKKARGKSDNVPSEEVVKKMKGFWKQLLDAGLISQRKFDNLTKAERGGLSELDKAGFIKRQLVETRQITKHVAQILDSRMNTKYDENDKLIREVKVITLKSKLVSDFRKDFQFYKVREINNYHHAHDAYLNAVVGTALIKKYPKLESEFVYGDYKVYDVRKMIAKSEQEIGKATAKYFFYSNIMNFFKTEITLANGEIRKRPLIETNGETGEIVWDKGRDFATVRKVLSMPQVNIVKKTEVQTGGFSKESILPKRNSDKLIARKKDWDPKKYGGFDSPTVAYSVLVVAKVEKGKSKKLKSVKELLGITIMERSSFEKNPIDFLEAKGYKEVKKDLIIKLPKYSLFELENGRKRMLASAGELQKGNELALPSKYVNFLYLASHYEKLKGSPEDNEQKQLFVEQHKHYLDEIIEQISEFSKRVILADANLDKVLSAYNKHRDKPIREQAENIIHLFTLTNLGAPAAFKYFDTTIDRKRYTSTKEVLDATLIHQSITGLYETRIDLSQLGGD", "experiment": "cell_activity; +++; HEK293T; PAM not stated", "procedure,_shortened": "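BFP-to-GFP conversion via reverse transcriptase fusion with each Cas endonuclease plus template RNA: 200 ng of each plasmid nucleofected into 250,000 BFP-expressing HEK293T cells (program DS-150). Percent GFP+ cells by flow cytometry at day 4 measured editing.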", "data": [{"binder": "B1", "values": [{"measurement": "activity", "value": "≥ 100 % of reference"}]}]}
